The source of these data is publication doi:10.1101/590273, “The structure of an injectisome export gate demonstrates conservation of architecture in the core export gate between flagellar and virulence type three secretion systems” (bioRxiv, 2019).

The term stoichiometry N denotes a count of units in the complex or per binding partner.

“And” between values parts separate entries of the source, which are not always exact repeats. Identical values can stand only once.

The chains are these.
B3: Shigella flexneri SctR (Spa24) (natural protein)
chain: MLSDMSLIATLSFFTLLPFLVAAGTCYIKFSIVFVMVRNALGLQQVPSNMTLNGIALIMALFVMKPIIEAGYENYLNGPQKFDTISDIVRFSDSGLMEYKQYLKKHTDLELARFFQRSEEENADLKSAENNDYSLFSLLPAYALSEIKDAFKIGFYLYLPFVVVDLVISSILLALGMMMMSPITISVPIKLVLFVALDGWGILSKALIEQYINIPA
notes: Spa24 (SctR), export gate component of the Shigella flexneri virulence type three secretion system; expressed from the complete operon; Five copies stand in the SctR5S4T1 complex

Data set [1] deals with T1, Salmonella enterica serovar Typhimurium FliR (Salmonella enterica serovar Typhimurium, UniProt P54702 1-264).
T1 construct: FliR, flagellar export gate component of Salmonella enterica serovar Typhimurium; source: expression of the complete operon
T1 sequence: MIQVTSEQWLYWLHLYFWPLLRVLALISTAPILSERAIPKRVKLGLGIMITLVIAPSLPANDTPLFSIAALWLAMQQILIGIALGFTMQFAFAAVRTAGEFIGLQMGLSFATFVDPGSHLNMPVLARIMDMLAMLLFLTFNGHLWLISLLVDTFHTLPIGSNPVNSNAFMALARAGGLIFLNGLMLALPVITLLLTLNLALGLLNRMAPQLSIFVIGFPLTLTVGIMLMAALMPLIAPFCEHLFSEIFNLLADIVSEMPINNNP
Description: cryo-EM structure; re-refinement of the original S. Typhimurium FliPQR data (Kuhlen, Abrusci et al. 2018) in RELION-3 with particle polishing and per-particle CTF refinement, 3.65 Å; coordinates remodeled and re-refined. As to conditions: both partners purified.

Data set [2] deals with the molecule itself. The description is as above.
Data set [3] addresses T2, Shigella flexneri SctT (Spa29) (Shigella flexneri, UniProt P0A1M6 1-256).
T2 construct: Spa29 (SctT), export gate component of the Shigella flexneri virulence type three secretion system; expressed from the complete operon; One copy stands in the complex; not shown: dual-strep tag, C-terminal, kept
T2 sequence: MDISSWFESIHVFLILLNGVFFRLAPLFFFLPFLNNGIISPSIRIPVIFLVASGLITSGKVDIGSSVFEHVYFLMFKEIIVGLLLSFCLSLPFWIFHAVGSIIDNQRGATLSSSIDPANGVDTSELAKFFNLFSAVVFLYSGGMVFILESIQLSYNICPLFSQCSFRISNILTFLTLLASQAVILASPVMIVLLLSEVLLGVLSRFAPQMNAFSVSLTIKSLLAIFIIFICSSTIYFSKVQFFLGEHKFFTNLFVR
Description: cryo-EM structure; SctRST complex co-expressed from one operon and purified by the strep tag on SctT; 0.01% LMNG in TBS (100 mM Tris, 150 mM NaCl, 1 mM EDTA, pH 8), 8.4 mg/ml; single particle cryoEM, RELION-3, 3.5 Å; further 3D classification gives classes with 2, 3 or 4 SctS. The conditions noted are these: both partners purified.

Data set [4] deals with B3. The data set is described as above. As to conditions: both partners purified.

B1: Salmonella enterica serovar Typhimurium FliQ (natural protein)
chain: MTPESVMMMGTEAMKVALALAAPLLLVALITGLIISILQAATQINEMTLSFIPKIVAVFIAIIVAGPWMLNLLLDYVRTLFSNLPYIIG
notes: FliQ, flagellar export gate component of Salmonella enterica serovar Typhimurium; source: expression of the complete operon
Take B1: the binding result in data set [1] was “binds”.

B2: Salmonella enterica serovar Typhimurium FliP (natural protein)
chain: QLPGLISQPLAGGGQSWSLSVQTLVFITSLTFLPAILLMMTSFTRIIIVFGLLRNALGTPSAPPNQVLLGLALFLTFFIMSPVIDKIYVDAYQPFSEQKISMQEALDKGAQPLRAFMLRQTREADLALFARLANSGPLQGPEAVPMRILLPAYVTSELKTAFQIGFTIFIPFLIIDLVIASVLMALGMMMVPPATIALPFKLMLFVLVDGWQLLMGSLAQSFYS
notes: FliP, flagellar export gate component of Salmonella enterica serovar Typhimurium; source: expression of the complete operon
As to B2, the binding result in data set [1] and in data set [2] was “binds” in each case.
On to B3, for which, in data set [3], the binding result was “binds”.

B4: Shigella flexneri SctS (Spa9) (natural protein)
chain: MSDIVYMGNKALYLILIFSLWPVGIATVIGLSIGLLQTVTQLQEQTLPFGIKLIGVSISLLLLSGWYGEVLLSFCHEIMFLIKSGV
notes: Spa9 (SctS), export gate component of the Shigella flexneri virulence type three secretion system; expressed from the complete operon; Two to four copies stand in the complexes seen (SctR5S2T1, SctR5S3T1, SctR5S4T1)
With B4, the binding result in data set [4] was “binds”. In addition, the “stoichiometry N” value in data set [3] is 4 and 2 and 3.
